Earlier results on two substances are cited in PMC7088015.

Read-outs that look alike come from different tables or passages of the source.

For orientation: pKa means the pH at which an ionisable group is half protonated.

Common to all, as to conditions: free dipeptide in solution (not further stated)
Series [1] relates to Nterm.
The subject of series [2] is Cterm.
Series [3] has as its system His2 (position 1, -----H-----). The experiment in a line: not stated.
In series [4] the test system is Nterm. Put plainly: not stated.
Series [5] has as its system Cterm (position 1, -----H-----). Put plainly: not stated.

“Anserine (beta-alanyl-1-methyl-L-histidine) (natural dipeptide of skeletal muscle of birds, fish and cattle (first identified in goose muscle); source of the titrated material not stated)”: the pKa was 9.49 in series [1] and 2.64 in series [2].

As to “Carnosine (beta-alanyl-L-histidine) (natural dipeptide of vertebrate skeletal muscle (discovered in cattle, Bos taurus); source of the titrated material not stated)”, the pKa in series [3] is reported as 6.83; in series [4], 9.66; in series [5], 2.77.
